In paper PMC4049228 (Science (New York, N.Y.), 2014):

Target: T1, Ricinus communis ATXR5 (RcATXR5 a.a. 158–374; nSET and SET domain) (Ricinus communis, UniProt B9RU15 158-374)
T1 sequence: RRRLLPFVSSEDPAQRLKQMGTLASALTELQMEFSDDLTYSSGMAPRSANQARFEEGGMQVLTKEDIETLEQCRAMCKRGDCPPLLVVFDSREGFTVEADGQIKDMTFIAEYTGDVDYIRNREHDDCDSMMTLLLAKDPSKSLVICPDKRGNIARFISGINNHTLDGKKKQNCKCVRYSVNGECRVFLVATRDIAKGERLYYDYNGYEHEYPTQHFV
Test: crystal structure

Binder: KQLATKAARKSAPATGGVK [histone H3.1 peptide (a.a. 18–36)]
- binding result: binds
